Test [1] addresses T1, mouse CXCL13 (mouse, UniProt O55038 22-109).
T1 construct: Recombinant protein bought from Peprotech (#250-24); In some assays native mouse CXCL13 from organ extracts of TNF-alpha transgenic mice was used; this is said in the assay field; also called recombinant mouse CXCL13; rmuCXCL13
T1 sequence: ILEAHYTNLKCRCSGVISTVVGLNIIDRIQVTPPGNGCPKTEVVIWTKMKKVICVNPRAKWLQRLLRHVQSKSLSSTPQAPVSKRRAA
The experiment in a line: SPR (Biacore), recombinant mouse CXCL13; printed as Affinity (Biacore), nM.

Test [2] addresses T1, mouse CXCL13. The experiment in a line: Specificity ELISA on recombinant mouse CXCL13 coated at 100 nM, OD 450/570, four-parameter sigmoidal fit. On the procedure:
For specificity ELISA, recombinant human, cynomolgus monkey, and mouse CXCL13 were each coated at 100 nM. […] The data points for each chemokine represents the mean of triplicate measurements. EC50 values were calculated from four-parameter sigmoidal curve fit (R² for the curves that produced EC50 values were 0.99).

In test [3] the target is T2, human CXCL13 (human, UniProt O43927 23-109).
T2 construct: Recombinant protein bought from Peprotech (#300-47); In some assays native human CXCL13 from supernatant of IFN-gamma-stimulated THP-1 cells was used; this is said in the assay field; also called recombinant human CXCL13; rhuCXCL13
T2 sequence: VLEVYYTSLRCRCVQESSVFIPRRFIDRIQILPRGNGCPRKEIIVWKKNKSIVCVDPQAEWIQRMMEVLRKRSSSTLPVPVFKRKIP
The experiment in a line: Specificity ELISA on recombinant human CXCL13 coated at 100 nM, OD 450/570, four-parameter sigmoidal fit.

The target of test [4] is T2, human CXCL13. The experiment in a line: SPR (Biacore), recombinant human CXCL13; printed as Affinity (Biacore), nM.
The target in a further test is T3, cynomolgus monkey CXCL13 (cynomolgus monkey, UniProt O43927 23-104 (human entry), limits assumed).
T3 construct: Recombinant; also called recombinant cynomolgus monkey CXCL13
T3 chain: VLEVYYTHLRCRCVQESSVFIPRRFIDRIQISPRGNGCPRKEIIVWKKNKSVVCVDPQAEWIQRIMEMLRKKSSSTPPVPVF
The experiment in a line: Specificity ELISA on recombinant cynomolgus monkey CXCL13 coated at 100 nM, OD 450/570, four-parameter sigmoidal fit.

Test [5] concerns the target T2, human CXCL13. The experiment in a line: SPR (BIACORE), recombinant human CXCL13, methods similar to Example 1; printed as Affinity, nM. On the procedure: (§1) Chemokines were immobilized on a C1 chip in Acetate buffer (pH=5) with human CXCL13 at 1 μg/ml, mouse CXCL13 at 0.3 μg/ml, and negative control SDF-1α at 0.5 μg/ml. 3D2 and 3C9 were diluted in HBS-EP buffer by two-fold from 100 nM to 0.78 nM and from 38 nM to […].

For test [6], the target named is T4, human CXCL13 15-mer peptide YTSLRCRCVQESSVF (human).
T4 peptide: YTSLRCRCVQESSVF
The experiment in a line: ProArray Ultra peptide microarray of 15-mer human CXCL13 peptides, fluorescent secondary antibody. Here is the method: In this project, the determination of peptide-antibody binding was performed by incubation of serum samples with a ProArray Ultra™ peptide microarray. This peptide array was generated as 15-mer peptides overlapping by 10 amino acids from the human CXCL13 primary sequence. The CXCL13 array contained sixteen unique peptides. […] After several washing steps the ProArray Ultra™ arrays were dried and scanned using a high-resolution fluorescence microarray scanning system.

For test [7], the target named is T1, mouse CXCL13. The experiment in a line: Capture Epitope Competition ELISA: native mouse CXCL13 captured with MAb 470; unlabeled competitor inhibits binding of 3.3 nM biotin-3D2; four-parameter fit. On the procedure: For mouse ELISA, mouse CXCL13 (1:40 dilution of TNF-Tg organ extract) was captured with 33 nM MAb 470 and detected with 3.3 nM biotin-3D2. Each data point represents an average of duplicate measurements from one of at least three independent experiments. […] Curves shown in FIGS. 17A-B were fitted using four-parameter sigmoidal curve fit (R²=0.99).

Test [8] has as its target T1, mouse CXCL13. The experiment in a line: SPR (BIACORE), recombinant mouse CXCL13, methods similar to Example 1; printed as Affinity, nM. Here is the method: as §1

B1: MAb 5261 (antibody, V domains shown)
VH: QVQLQESGPGLVKPSETLSLTCTVSGFSLSTFGMGVGWIRQPPGKGLEWIAHIWWDDDRRYNPALKSRVTISKDTSKNQFSLKLSSVTAADTAVYYCARIAGYYGSRDWFAYWGQGTTVTVSS
VL: DIQMTQSPSSLSASVGDRVTITCRASESVDNMGISFMHWYQQKPGKAPKLLIFRASDLESGVPSRFSGSGSGTDFTLTISSLQPEDFATYYCQQSNKDPWTFGQGTKLEIK
notes: Humanized
Regarding B1, the Kd with mouse CXCL13 [1] came to 8.1 nM; with human CXCL13 [4], 5.1 nM; in the test with human CXCL13 [5], 5.1 nM; in the test with mouse CXCL13 [8], 8.1 nM. Further, the half-maximal effective concentration (EC50) amounted to 0.09 nM with mouse CXCL13 [2], 0.03 nM with human CXCL13 [3], 0.04 nM in the test with cynomolgus monkey CXCL13 and 6 nM in the test with mouse CXCL13 [7]. Besides, the binding result in test [6] is “binds”.

The record behind these values is patent US20160002325A1 (VACCINEX, published 2016).
